Source: paper PMC5847613 (Scientific Reports, 2018)

Assays:
Details in all cases: both partners purified
[1] = biological target: T1, recombinant HA of pH1N1 A/California/04/2009 (Influenza A virus A/California/04/2009 …, UniProt C3W5S1, strain); assay: SPR
T1 construct: source: bought: Protein Sciences Corp., Meriden, CT

[2] = biological target: recombinant HA of A/USSR/1977 H1N1 (Influenza A virus A/USSR/90/1977 …, UniProt P03453, strain); assay: mPLEX-Flu multiplex fluorescent-bead assay (Luminex)
[3] = biological target: recombinant HA of A/South Carolina/01/1918 H1N1 (Influenza A virus A/South …, UniProt Q9WFX3, strain); assay: as above
[4] = biological target: recombinant influenza B HA (B/Brisbane/60/08) (Influenza B virus B/Brisbane/60/2008, UniProt C0LT35, strain); assay: ELISA
[5] = biological target: recombinant influenza A H1 HA (A/Brisbane/59/07) (Influenza A virus A/Brisbane/59/2007 …, UniProt D5F1Q8, strain); assay: ELISA

B1: KPF1 human monoclonal antibody (antibody, V domains shown)
VH: EVQLLESGGGLVQPGGSLRISCAASGSTFGDFAMSWVRQSPGRGLEWVSVTSAGGDRTYYADSVKGRFTISRDNSKNTLYLQMNSLRGEDTAMYYCARLDSSGFHYGRPGRNWGQGTLVTVSS
VL: DIQMTHSPPSLSASVGDRITITCQASQDISYYLIWYQQKPGKAPKPLIYDASNLEAGVPSRFSASGSGTDFTLTISSLQPEDLATYYCQQYKSLPYTFGQGTKLEIK
notes: also called KPF1 hmAb; hmAb KPF1
[1]
  Kd: 178 pM
[2]
  binding result: no binding (tested: 1 μg/ml)
[3]
  binding result: binds
[4]
  binding result: no binding
[5]
  binding result: binds
